In patent US11103562B2, “Composition comprising alkaline phosphatase for use in the treatment of arthritides” (AMRIF BV, priority 2017, dated 2021):

Key:
[1] = AP plasma pharmacokinetics (enzymatic PNP assay) in healthy and arthritic rats; format: in vivo, rat; settings: for persistence of increased plasma AP levels: 4 hour sampling
Method: An enzymatic assay was used to determine plasma concentrations of alkaline phosphatase prior to and 0-4 hours after administration a dose of 700 U/kg AP to healthy rats and arthritic rats, FIG. 7. At time points 0, 15, 60, 120 and 240 min after AP administration, a blood sample was drawn from the tail vain of the rats and transferred to a lml Eppendorf microtube containing heparin (454081, Greiner bio-one, Charlotte, USA) as anti-coagulant. As a control, blood was drawn at the same time points from arthritic rats that were injected a t=0 with 500 μl PBS. Eppendorf tubes were centrifuged at 3,000×g for 5 min at 4° C., after which the plasma was collected and stored at −80° C. until use.
The enzymatic assay for AP is based on the conversion of the substrate paranitrophenol-phosphate (PNP; 104105, Sigma-Aldrich, Zwijdrecht, the Netherlands) to paranitrophenol which is measured spectrophotometrically at 405 nm at 25° C. To a 3 ml reaction cuvette was added 2.9 ml substrate solution (containing final concentrations of 25 mM glycine, 10 mM MgCl2, 3 mM PNP, adjusted to pH 9.6 with NaOH). The reaction was started by adding 30 μl of plasma sample, 1:1 diluted in enzyme diluent buffer (25 mM glycine, 1 mM MgCl2, 0.1 mM ZnCl2, 10% (v/v) glycerol, adjusted to pH 9.6 with NaOH). In parallel a reference cuvette was assayed without substrate. The reaction was followed on line for 5 min at 25° C. with continuous monitoring increase of absorbance at 405 nm using a (10037-434, VWR, Radnor, Pa.<USA) spectrophotometer. From the linear phase of A405 increments, AP activity in plasma samples (in U/L) was calculated from a standard curve with serial dilutions of a human recombinant placenta AP stock solution. One Unit of activity is defined as the amount of enzyme decomposing 1 μmol of PNP/min at 25° C.

[2] = test system: ED1-, ED2- and FRβ-positive macrophages in liver and spleen; experiment: Macrophage infiltration in liver and spleen of arthritic rats (ED1/ED2 immunohistochemistry, FRβ immunofluorescence); format: in vivo, rat
Method: The arthritic and contralateral knees from all rats were dissected in toto and fixed for 7 days at 4° C. in 10% freshly made paraformaldehyde in PBS with 2% sucrose (pH=7.3) prior to decalcification in osteosoft (101728, Merck, Germany) for ˜2.5 weeks at room temperature. Thereafter, knees were embedded in paraffin. Sections of 5 μm were cut through the centre of the joint in longitudinal direction and stained with haematoxylin and eosin (HE) to assess the degree of inflammation in synovial tissue. Liver and spleen sections from all rats were dissected and fixed in 4% paraformaldehyde for 24 h before embedding in paraffin. Sections of 5 μm were cut and stained initially with HE and then for macrophages Staining for macrophages with ED1 (homologous to human CD68), and ED2 (homologous to human CD163, a marker for M2 anti-inflammatory macrophages), or isotype control antibody was performed. Images were captured using a Leica 4000B microscope and Leica digital camera DC500 (Microsystems B. V. Rijswijk, The Netherlands).
Liver and spleen tissues collected at the end of the study were snap frozen in liquid nitrogen and stored at −80° C. Tissues were embedded in appropriate media (OCT; SKU4583, Tissue-Tek, Netherlands), cut using a cryotome cryostat (−20° C.) (Leica, The Netherlands) and placed on Superfrost (4951PLUS4, ThermoFisher, The Netherlands) glass slides for immunofluorescence (IF) staining Sections of 8 μm were cut and stained with haematoxylin and eosin. […]
Stained slides of liver and spleen sections of arthritic rats and AP-treated arthritic rats were blinded and counted by two independent observers for FRβ, ED1- and ED2-positive synovial macrophages. For quantification, representative areas of liver and spleen sections were divided into 4 regions, each representing a central pulp and vein, respectively. The FRβ, ED1- and ED2-positive macrophages were counted at 400× magnification as described above. […] As a reference liver and spleen sections of healthy rats were analyzed as control.

B1: AP: human recombinant placenta alkaline phosphatase (hRESCAP; TNO, Zeist), an ectophosphatase (protein, UniProt P05187 23-506, looked up)
Alkaline phosphatase, …: IIPVEEENPDFWNREAAEALGAAKKLQPAQTAAKNLIIFLGDGMGVSTVTAARILKGQKKDKLGPEIPLAMDRFPYVALSKTYNVDKHVPDSGATATAYLCGVKGNFQTIGLSAAARFNQCNTTRGNEVISVMNRAKKAGKSVGVVTTTRVQHASPAGTYAHTVNRNWYSDADVPASARQEGCQDIATQLISNMDIDVILGGGRKYMFRMGTPDPEYPDDYSQGGTRLDGKNLVQEWLAKRQGARYVWNRTELMQASLDPSVTHLMGLFEPGDMKYEIHRDSTLDPSLMEMTEAALRLLSRNPRGFFLFVEGGRIDHGHHESRAYRALTETIMFDDAIERAGQLTSEEDTLSLVTADHSHVFSFGGYPLRGSSIFGLAPGKARDRKAYTVLLYGNGPGYVLKDGARPDVTESESGSPEYRQQSAVPLDEETHAGEDVAVFARGPQAHLVHGVQEQTFIAHVMAFAACLEPYTACDLAPPAGTTD
In the case of B1, the “maximum increase of plasma AP levels over baseline” value ([1]; arthritic rats, 700 U/kg i.p.) is reported as 1.7 fold, the “time for plasma AP levels to drop to basal levels” value ([1]; arthritic rats, 700 U/kg i.p.) is reported as “steadily returned to baseline levels” and the “time for plasma AP levels to drop to basal levels” value ([1]; arthritic rats, 700 U/kg i.p., listed as hRESCAP) is reported as no more than 4 h. For the same molecule, the “time to maximum (peak) plasma AP level” value ([1]; healthy and arthritic rats, 700 U/kg i.p.) was 1 h, the “peak plasma levels above baseline” value ([1]; healthy and arthritic rats, single i.p. dose of 700 U/kg) was 50-70% and the “maximum increase of plasma AP levels over baseline” value ([1]; healthy rats, 700 U/kg i.p.) was 1.5 fold. The “persistence of increased plasma AP levels” value ([1]; healthy rats, 700 U/kg i.p.) was “retained for up to 4 hours”, the “persistence of increased plasma AP levels” value ([1]; healthy rats, 700 U/kg i.p., listed as hRESCAP) was “remained stably higher above control level in plasma over 4 hours” and the “reduction of both ED1- and ED2-positive infiltrating macrophages in spleen” value ([2]; AP-treated vs saline-treated arthritic rats) was roughly 30%. For the same molecule, the “decrease of both ED1- and ED2-positive infiltrating macrophages in liver” value ([2]; AP-treated vs saline-treated arthritic rats, p<0.001) was roughly 50% and the “FRβ-positive macrophages in liver and spleen” value ([2]; after AP treatment, arthritic rats) was “lowered number”.
